Measurements: PMC9126950
Where “and” joins values, the source holds several entries; their conditions need not be identical. Equal values may be shown once.

Biological target: VHH-72-C13 (llama)
Experiment: electrochemical titration (differential pulse voltammetry)

Chain of VHH-72-C13 (llama) (VHH, as listed by the source): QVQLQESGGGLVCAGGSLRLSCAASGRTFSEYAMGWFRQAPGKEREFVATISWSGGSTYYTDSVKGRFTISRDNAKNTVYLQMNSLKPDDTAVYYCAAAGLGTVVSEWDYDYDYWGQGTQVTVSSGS

SARS-CoV-2 spike receptor binding domain (RBD), recombinant (from UniProt P0DTC2 319-541) (domain or fragment)
half saturation point (Langmuir isotherm): 3.7 nM and 7.5 nM
